Experimental data as given in US20220048999A1 (Genmab, published 2022).

Tests used:
[1] = target: T1, human B7H4, full length, on cells (human, UniProt Q7Z7D3 25-282); assay: flow cytometry, HEK-293F cells transfected with human B7H4 (panel Human B7H4), about 0.0004-30 µg/ml, MFI PE
T1 construct: On transiently transfected HEK cells or on B7H4-expressing human tumor cell lines; also called VTCN1
T1 sequence: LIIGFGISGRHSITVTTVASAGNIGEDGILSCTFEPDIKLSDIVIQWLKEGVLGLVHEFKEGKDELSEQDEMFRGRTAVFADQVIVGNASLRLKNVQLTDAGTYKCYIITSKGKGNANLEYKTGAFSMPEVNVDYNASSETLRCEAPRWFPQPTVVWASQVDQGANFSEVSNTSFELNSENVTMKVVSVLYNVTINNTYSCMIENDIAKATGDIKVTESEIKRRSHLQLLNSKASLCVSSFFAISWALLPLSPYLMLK
Experimental: (§1) Cells (3×10⁴ cells/well) were incubated in polystyrene 96-well round-bottom plates (Greiner bio-one, cat. no. 650180) with serial dilutions of antibodies (ranging from 0.000458 to 30 μg/mL in 4-fold dilution steps) in 100 μL PBS/0.1% BSA/0.02% azide (staining buffer) at 4° C. for 30 min. Experiments were performed in technical duplicate. After washing twice in staining buffer, cells were incubated in 50 μL secondary antibody at 4° C. for 30 min. As a secondary antibody, R-Phycoerythrin (PE)-conjugated goat-anti-human IgG F(ab′)₂ (1:500 in FACS buffer; Jackson ImmunoResearch Laboratories, Inc., West Grove, Pa., cat. no. 109-116-098), was used. Cells were washed twice in staining buffer, re-suspended in 30 μL FACS buffer containing Topro-3 (1:10,000 dilution) and analyzed on an iQue Screener (Intellicyt Corporation, USA). Binding curves were analyzed using non-linear regression (sigmoidal dose-response with variable slope) using Graph Pad Prism V7.02 software (GraphPad Software, San Diego, Calif., USA).

[2] = target: T2, cynomolgus monkey (Macaca fascicularis) B7H4 transcript 1, full length, on HEK-293F cells (cynomolgus monkey, UniProt Q7Z7D3 25-282 (human entry)); assay: flow cytometry, HEK-293F cells transfected with cynomolgus monkey B7H4 (panel Cynomolgus monkey B7H4), about 0.0004-30 µg/ml, MFI PE
T2 construct: also called cynomolgus B7H4
T2 chain: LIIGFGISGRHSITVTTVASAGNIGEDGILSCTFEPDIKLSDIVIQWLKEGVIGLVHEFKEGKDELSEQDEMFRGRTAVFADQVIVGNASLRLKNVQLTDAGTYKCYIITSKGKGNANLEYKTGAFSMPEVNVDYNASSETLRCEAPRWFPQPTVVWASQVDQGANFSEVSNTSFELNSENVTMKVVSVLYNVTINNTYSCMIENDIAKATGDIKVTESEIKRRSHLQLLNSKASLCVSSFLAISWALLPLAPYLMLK
Experimental: as §1

[3] = target: T3, mouse (Mus musculus) B7H4, full length, on HEK-293F cells (mouse, UniProt Q7TSP5 25-257); assay: flow cytometry, HEK-293F cells transiently transfected with mouse B7H4 (panel Mouse B7H4), 0.000458-30 µg/ml, PE-anti-human IgG, MFI PE
T3 sequence: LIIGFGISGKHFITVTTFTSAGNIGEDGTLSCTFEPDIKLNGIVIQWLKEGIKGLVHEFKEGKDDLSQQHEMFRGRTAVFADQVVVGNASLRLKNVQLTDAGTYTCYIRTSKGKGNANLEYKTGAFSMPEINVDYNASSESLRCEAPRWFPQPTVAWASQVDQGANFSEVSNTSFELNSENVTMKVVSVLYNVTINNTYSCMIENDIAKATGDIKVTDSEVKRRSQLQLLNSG
Experimental: as §1

B1: IgG1-B7H4-C1-N52S-FEAR (antibody, V domains shown)
VH: QVQLQQWGAGLLKPSETLSLTCAVYGGSFSGYYWSWIRQPPGKGLEWIGEISHSGSTNYNPSLKSRVTISIDTSKNQFSLKLTSVTAADTAVFYCARGLFNWNFDSWGQGTLVTVSS
VL: DIQMTQSPSSLSASVGDRVTITCRASQGIRNDLGWYQQKPGKAPKRLIYGASSLQSGVPSRFSGSGSGTEFTLTISSLQPEDFATYYCLQHNSYPRTFGQGTTVEIKR
notes: Full-length human IgG1 with L234F, L235E, D265A, K409R (FEAR), kappa light chain; also called IgG1-B7H4-C1-052S-FEAR; IgG1-B7H4-C1-N525-FEAR
EC50 (read off the curve) [1]: ~0.04 µg/mL | EC50 (read off the curve) [2]: ~0.1 µg/mL | EC50 (read off the curve) [3]: ~0.4 µg/mL
